Assay results: article PMC8164019 (Methods in molecular biology (Clifton, N.J.), 2020)

Target: the molecule itself
Assay: negative-stain EM

B1: MxB after cleavage of the MBP tag by HRV-3C protease (natural protein, human, UniProt P20592 1-715, looked up)
chain: MSKAHKPWPYRRRSQFSSRKYLKKEMNSFQQQPPPFGTVPPQMMFPPNWQGAEKDAAFLAKDFNFLTLNNQPPPGNRSQPRAMGPENNLYSQYEQKVRPCIDLIDSLRALGVEQDLALPAIAVIGDQSSGKSSVLEALSGVALPRGSGIVTRCPLVLKLKKQPCEAWAGRISYRNTELELQDPGQVEKEIHKAQNVMAGNGRGISHELISLEITSPEVPDLTIIDLPGITRVAVDNQPRDIGLQIKALIKKYIQRQQTINLVVVPCNVDIATTEALSMAHEVDPEGDRTIGILTKPDLMDRGTEKSVMNVVRNLTYPLKKGYMIVKCRGQQEITNRLSLAEATKKEITFFQTHPYFRVLLEEGSATVPRLAERLTTELIMHIQKSLPLLEGQIRESHQKATEELRRCGADIPSQEADKMFFLIEKIKMFNQDIEKLVEGEEVVRENETRLYNKIREDFKNWVGILATNTQKVKNIIHEEVEKYEKQYRGKELLGFVNYKTFEIIVHQYIQQLVEPALSMLQKAMEIIQQAFINVAKKHFGEFFNLNQTVQSTIEDIKVKHTAKAENMIQLQFRMEQMVFCQDQIYSVVLKKVREEIFNPLGTPSQNMKLNSHFPSNESSVSSFTEIGIHLNAYFLETSKRLANQIPFIIQYFMLRENGDSLQKAMMQILQEKNRYSWLLQEQSETATKRRILKERIYRLTQARHALCQFSSKEIH
B1: binds.
